Values of other authors, collected in publication PMC5074778.

Target: IL-6 receptor (Homo sapiens) (UniProt P08887)
Chain of UniProt P08887 (P08887 20-365): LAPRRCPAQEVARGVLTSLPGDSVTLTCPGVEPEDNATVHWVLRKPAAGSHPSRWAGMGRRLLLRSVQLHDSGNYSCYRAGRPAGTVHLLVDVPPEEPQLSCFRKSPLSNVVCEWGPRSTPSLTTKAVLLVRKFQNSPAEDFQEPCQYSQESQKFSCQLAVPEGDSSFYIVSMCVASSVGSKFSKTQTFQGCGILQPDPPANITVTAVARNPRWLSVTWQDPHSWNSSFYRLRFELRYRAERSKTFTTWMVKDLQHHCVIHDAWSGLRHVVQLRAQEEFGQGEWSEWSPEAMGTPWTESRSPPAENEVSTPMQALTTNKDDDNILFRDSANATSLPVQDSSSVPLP

Kd: 2.5 nM
Substance: Tocilizumab
